Data as given in patent US20210347868A1 (published 2021).

Legend:
[1] = molecular target: T1, biotinylated alpha-synuclein peptide, residues 121-140 (human, biotinylated (position not given)); experiment: Octet biolayer interferometry; table of peptide regions bound by anti-synuclein mAbs
T1 construct: also called syn121-140

[2] = molecular target: full-length (140 amino acid) human alpha-synuclein with C-terminal AviTag, biotinylated, his-tag removed by … (human, UniProt P37840 1-140); experiment: isothermal titration calorimetry in PBS, antibody:synuclein (1:2) model; Kd only on the graph
Method: FIGS. 5A-5C show affinity binding of human anti-synuclein antibodies for full-length synuclein protein as determined by isothermal titration calorimetry (ITC). […] The thermodynamic parameters and the equilibrium dissociation constants, Kd, were determined upon fitting the ITC data to a model assuming a single set of binding sites corresponding to an antibody:synuclein (1:2) binding model. Continuous lines represent the best fit of experimental data assuming a single set of binding sites. Experiments were performed in PBS. Equilibrium dissociation constants (Kd) are shown on the individual graphs.
The affinities of antibodies for full length synuclein protein were determined in solution on a MicroCal Auto-iTC200 system (Malvern Panalystical; Malvern, United Kingdom). […] The thermodynamic parameters and the equilibrium dissociation constants, Kd, were determined upon fitting the ITC data to a model assuming a single set of binding sites corresponding to an antibody:synuclein (1:2) binding model (FIG. 5).

[3] = molecular target: T2, biotinylated alpha-synuclein peptide, residues 111-140 (human, biotinylated (position not given)); experiment: Octet biolayer interferometry, biotinylated peptide on streptavidin biosensor
T2 construct: also called syn111-140

B1: human anti-alpha-synuclein antibody 323.1 (hantiAsyn-323.1) (antibody, V domains shown)
VH: EVQLLESGGGLVQPGGSLKLSCAASGFTFSASAMHWVRQTSDKRLEWVGRIRNKANNYATAYAASVKGRFTISRDDSKNTAYLQMNSLKTEDTAVYYCTRHLSLGGNSVDYWGQGTPVTVSS
VL: DVVMTQSPLSSPVTLGQPASISCRASQSPVHSDGNTYLSWLQQRPGQPPRLLIYTISNRFPGVPDRFSGSGAGTDFTLRISRVEAEDVGVYYCMQGTQFPYTFGQGTKLEIK
B1: binds [1]; binds [2]; binds [3].

B2: human anti-alpha-synuclein antibody 336.1 (hantiAsyn-336.1) (antibody, V domains shown)
VH: EVQLVQSGGTLVQPGGSLRLSCAASGFTFSTYAISWVRQAPGRGLEWVSFITGDGSRILYADSVRGRFSISRDNSKNTLYLQMNSLRTDDTAMYYCVFNHYWGQGTLVTVSS
VL: AIQLTQSPDSLAVSLGERATINCKASQSLLYSSNNRNYLAWYQQKPGQPPKALIYWASTRESGVPDRFSGSGSGTDFTLTISSLQAEDVAVYYCHQYYTTHSFGQGTKLEIK
B2: binds [2]; binds [3].
